In patent US20180016327A1 (Chugai, published 2018):
Numbering of substitutions follows the chain as printed.

B1: CFP0011 11L 34N (antibody, V domains shown)
VH: QVQLVQSGAEVKKPGSSVKVSCKASGGTFSSYAISWVRQAPGQGLEWMGGIIPIFGTANYAQKFQGRVTITADESTSTAYMELSSLRSEDTAVYYCARDMSEFLGWSNYYSYPMDVWGQGTTVTVSS
VL: DIQMTQSPSSLSASVGDRVTITCRASQSIEDDLNWYQQKPGKAPKLLIYHASSLQSGVPSRFSGSGSGTDFTLTISSLQPEDFATYYCQQSDNSPYTFGQGTKVEIK
B2: CFP0021 (antibody, V domains shown)
VH: QVQLVESGGGLVQPGGSLRLSCAASGFTFSDHYMDWVRQAPGKGLEWVGRTRNKANSYTTEYAASVKGRFTISRDDSKNSLYLQMNSLKTEDTAVYYCARTGMMYWGIFDVWGQGTLVTVSS
VL: B1 VL with N34A, S53T, S91H, N93S, S94Y, Y96L
notes: IgG format
B3: CFP0017 17L 32N (antibody, V domains shown)
VH: QVQLVQSGAEVKKPGSSVKVSCKASGGTFSSYAISWVRQAPGQGLEWMGGIIPIFGTANYAQKFQGRVTITADESTSTAYMELSSLRSEDTAVYYCARGGWWGGALDYWGQGTLVTVSS
VL: B1 VL with D32N, N34A, N93S, S94Y, Y96L
B4: CFP0011 11L 96W (antibody, V domains shown)
VH: B1 VH
VL: B1 VL with N34A, Y96W
B5: CFP0021 21L 34N (antibody, V domains shown)
VH: B2 VH
VL: B1 VL with S53T, S91H, N93S, S94Y, Y96L
B6: CFP0011 11L 93D (antibody, V domains shown)
VH: B1 VH
VL: B1 VL with N34A, N93D
B7: CFP0011 11L 91R (antibody, V domains shown)
VH: B1 VH
VL: B1 VL with N34A, S91R
B8: CFP0021 21L 30A (antibody, V domains shown)
VH: B2 VH
VL: B1 VL with E30A, N34A, S53T, S91H, N93S, S94Y, Y96L
B9: CFP0021 21L 50E (antibody, V domains shown)
VH: B2 VH
VL: B1 VL with N34A, H50E, S53T, S91H, N93S, S94Y, Y96L
B10: CFP0021 21L 30H (antibody, V domains shown)
VH: B2 VH
VL: B1 VL with E30H, N34A, S53T, S91H, N93S, S94Y, Y96L
B11: CFP0011 11L 96H (antibody, V domains shown)
VH: B1 VH
VL: B1 VL with N34A, Y96H
B12: CFP0021 21L 53H (antibody, V domains shown)
VH: B2 VH
VL: B1 VL with N34A, S53H, S91H, N93S, S94Y, Y96L
B13: CFP0011 11L 50D (antibody, V domains shown)
VH: B1 VH
VL: B1 VL with N34A, H50D
B14: CFP0011 11L 94T (antibody, V domains shown)
VH: B1 VH
VL: B1 VL with N34A, S94T
B15: CFP0011 11L 92S (antibody, V domains shown)
VH: B1 VH
VL: B1 VL with N34A, D92S
B16: CFP0011 11L 91Y (antibody, V domains shown)
VH: B1 VH
VL: B1 VL with N34A, S91Y
B17: CFP0021 21L 32N (antibody, V domains shown)
VH: B2 VH
VL: B1 VL with D32N, N34A, S53T, S91H, N93S, S94Y, Y96L
B18: CFP0021 21L 53N (antibody, V domains shown)
VH: B2 VH
VL: B1 VL with N34A, S53N, S91H, N93S, S94Y, Y96L
B19: CFP0021 21L 50Y (antibody, V domains shown)
VH: B2 VH
VL: B1 VL with N34A, H50Y, S53T, S91H, N93S, S94Y, Y96L
B20: CFP0021 21L 50Q (antibody, V domains shown)
VH: B2 VH
VL: B1 VL with N34A, H50Q, S53T, S91H, N93S, S94Y, Y96L
B21: CFP0011 11L 96I (antibody, V domains shown)
VH: B1 VH
VL: B1 VL with N34A, Y96I
B22: CFP0011 11L 93G (antibody, V domains shown)
VH: B1 VH
VL: B1 VL with N34A, N93G
B23: CFP0011 11L 93R (antibody, V domains shown)
VH: B1 VH
VL: B1 VL with N34A, N93R
B24: CFP0011 11L 50A (antibody, V domains shown)
VH: B1 VH
VL: B1 VL with N34A, H50A
B25: CFP0021 21L 50T (antibody, V domains shown)
VH: B2 VH
VL: B1 VL with N34A, H50T, S53T, S91H, N93S, S94Y, Y96L
B26: CFP0021 21L 31H (antibody, V domains shown)
VH: B2 VH
VL: B1 VL with D31H, N34A, S53T, S91H, N93S, S94Y, Y96L
B27: CFP0011 11L 96P (antibody, V domains shown)
VH: B1 VH
VL: B1 VL with N34A, Y96P
B28: CFP0021 21L 50A (antibody, V domains shown)
VH: B2 VH
VL: B1 VL with N34A, H50A, S53T, S91H, N93S, S94Y, Y96L
B29: CFP0021 21L 53S (antibody, V domains shown)
VH: B2 VH
VL: B1 VL with N34A, S91H, N93S, S94Y, Y96L
B30: CFP0011 11L 50E (antibody, V domains shown)
VH: B1 VH
VL: B1 VL with N34A, H50E
B31: CFP0011 11L 94Y (antibody, V domains shown)
VH: B1 VH
VL: B1 VL with N34A, S94Y
B32: CFP0011 11L 53T (antibody, V domains shown)
VH: B1 VH
VL: B1 VL with N34A, S53T
B33: CFP0011 11L 96L (antibody, V domains shown)
VH: B1 VH
VL: B1 VL with N34A, Y96L
B34: CFP0021 21L 30S (antibody, V domains shown)
VH: B2 VH
VL: B1 VL with E30S, N34A, S53T, S91H, N93S, S94Y, Y96L
B35: CFP0011 11L 91H (antibody, V domains shown)
VH: B1 VH
VL: B1 VL with N34A, S91H
B36: CFP0021 21L 31N (antibody, V domains shown)
VH: B2 VH
VL: B1 VL with D31N, N34A, S53T, S91H, N93S, S94Y, Y96L
B37: CFP0021 21L 50D (antibody, V domains shown)
VH: B2 VH
VL: B1 VL with N34A, H50D, S53T, S91H, N93S, S94Y, Y96L
B38: CFP0011 11L 53N (antibody, V domains shown)
VH: B1 VH
VL: B1 VL with N34A, S53N
B39: CFP0021 21L 30D (antibody, V domains shown)
VH: B2 VH
VL: B1 VL with E30D, N34A, S53T, S91H, N93S, S94Y, Y96L
B40: CFP0021 21L 31A (antibody, V domains shown)
VH: B2 VH
VL: B1 VL with D31A, N34A, S53T, S91H, N93S, S94Y, Y96L
B41: CFP0021 21L 32Q (antibody, V domains shown)
VH: B2 VH
VL: B1 VL with D32Q, N34A, S53T, S91H, N93S, S94Y, Y96L
B42: CFP0021 21L 50S (antibody, V domains shown)
VH: B2 VH
VL: B1 VL with N34A, H50S, S53T, S91H, N93S, S94Y, Y96L
B43: CFP0011 11L 93S (antibody, V domains shown)
VH: B1 VH
VL: B1 VL with N34A, N93S
B44: CFP0011 11L 53H (antibody, V domains shown)
VH: B1 VH
VL: B1 VL with N34A, S53H
B45: CFP0011 11L 96F (antibody, V domains shown)
VH: B1 VH
VL: B1 VL with N34A, Y96F

The binders below were run against T1, human C5 (human, UniProt P01031 19-673; P01031 678-1676, Beta and alpha chains are disulfide-linked and the protein is glycosylated.) (assay: Biacore, captured antibody, pH 7.4, 37 C;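 note: biacore binding response of anti-C5 antibody light chain variants captured on chip with human C5 injected, ACES running buffer containing 1.2 mM CaCl₂, parent light chain antibody set to 100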).
T1 construct: Either in-house recombinant C5 or plasma derived C5 (CALBIOCHEM) was used; also called recombinant human C5; plasma derived human C5

Compared with B1, B2 is higher in “% binding (parent = 100)” value: 29.2% for the first, 100% for the second.

First: B3
Second: B4
The “% binding (parent = 100)” value of the first is higher: 27% for the first, 5.4% for the second.

Going from B5 to B6, the “% binding (parent = 100)” value falls from 14.4% to 5.4%.

Compared with B7, B8 is higher in “% binding (parent = 100)” value: -2.6% for the first, 76.9% for the second.

First: B9
Second: B10
The “% binding (parent = 100)” value of the first is lower: 44% for the first, 59.7% for the second.

First: B11
Second: B12
The “% binding (parent = 100)” value of the first is lower: 5.1% for the first, 75.7% for the second.

First: B13
Second: B14
The “% binding (parent = 100)” value of the first is lower: 58.2% for the first, 207% for the second.

First: B15
Second: B16
The “% binding (parent = 100)” value of the first is lower: 1.1% for the first, 56% for the second.

First: B17
Second: B18
The “% binding (parent = 100)” value of the first is lower: 17.5% for the first, 97.6% for the second.

First: B19
Second: B20
The “% binding (parent = 100)” value of the first is higher: 74.9% for the first, 61.1% for the second.

Going from B21 to B22, the “% binding (parent = 100)” value rises from 0.8% to 3.6%.

Going from B23 to B24, the “% binding (parent = 100)” value rises from 11.7% to 95.2%.

Compared with B25, B26 is higher in “% binding (parent = 100)” value: 38.8% for the first, 41.3% for the second.

First: B27
Second: B28
The “% binding (parent = 100)” value of the first is lower: -1.6% for the first, 33.4% for the second.

Compared with B29, B30 is higher in “% binding (parent = 100)” value: 73.2% for the first, 75.6% for the second.

First: B31
Second: B32
The “% binding (parent = 100)” value of the first is lower: -0.7% for the first, 98.9% for the second.

Compared with B33, B34 is higher in “% binding (parent = 100)” value: 3.2% for the first, 76.7% for the second.

Compared with B35, B36 is lower in “% binding (parent = 100)” value: 320% for the first, 52.3% for the second.

Going from B37 to B38, the “% binding (parent = 100)” value rises from 53% to 105%.

First: B39
Second: B40
The “% binding (parent = 100)” value of the first is higher: 87.5% for the first, 31.2% for the second.

Going from B41 to B42, the “% binding (parent = 100)” value falls from 80.4% to 40.6%.

First: B43
Second: B44
The “% binding (parent = 100)” value of the first is lower: 4% for the first, 115% for the second.

In the case of B45, the “% binding (parent = 100)” value is reported as 82.8%.
